Assay results published in US20210115143A1 (R PHARM OVERSEAS, published 2021).
Several values for one entry are separate records, joined by “and”; a condition that tells them apart may be missing. Equal values may be shown once.

Legend:
[1] = target: human PD-L1 on primary human cells in the dendritic cell / CD4+ T cell mixed lymphocyte reaction (human, UniProt Q9NZQ7 19-290); assay: cell-based or functional assay
[2] = target: hPD-L1 as used in the binding and blocking tests of Example 4 (human, UniProt Q9NZQ7 19-238, limits assumed); assay: competition with PD-1 for PD-L1, scFv-Fc (FIG. 3)
Chain of hPD-L1 as used in the binding and blocking tests of Example 4 (Q9NZQ7 19-238 limits assumed): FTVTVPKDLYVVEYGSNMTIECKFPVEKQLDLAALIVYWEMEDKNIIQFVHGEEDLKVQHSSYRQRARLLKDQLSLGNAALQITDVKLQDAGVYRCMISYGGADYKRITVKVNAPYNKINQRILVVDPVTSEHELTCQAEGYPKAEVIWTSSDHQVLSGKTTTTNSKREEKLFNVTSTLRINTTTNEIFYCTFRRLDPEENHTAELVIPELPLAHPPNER

Chain of human PD-L1 on primary human cells in the dendritic cell / CD4+ T cell mixed lymphocyte reaction (Q9NZQ7 19-290): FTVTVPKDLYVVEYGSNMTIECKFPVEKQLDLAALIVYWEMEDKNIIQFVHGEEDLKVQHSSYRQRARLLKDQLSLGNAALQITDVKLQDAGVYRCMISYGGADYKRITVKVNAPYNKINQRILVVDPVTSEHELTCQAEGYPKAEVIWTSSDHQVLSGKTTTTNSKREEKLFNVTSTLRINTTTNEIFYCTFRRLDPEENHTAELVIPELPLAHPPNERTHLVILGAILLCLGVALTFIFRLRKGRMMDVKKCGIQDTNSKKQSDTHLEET

B1: BII61-62 mAb (anti-hPD-L1, human IgG1, kappa) (antibody, V domains shown)
VH: QVQLQQSGPGLVKPSQTLSLTCAISGDSVSSNSASWNWIRQSPSRGLEWLGRTYYRSKWYDDYAVSVKGRISINPDTSKNQFSLQLNSVTPEDTAVYYCARSQGRYFVNYGMDVWGQGTTVTVSS
VL: DIRLTQSPSSLSASVGDRITITCRASQSISSYLNWYQQKPGKAPKLLVYGASSLQSGVPSRFSGSGSGTDFTLTISSLQPEDVATYYCQQSYFTPRGITFGPGTKVDIK
In the case of B1, the “EC50 of IFN-γ secretion by CD4+ T cells in a dendritic cell-T cell mixed lymphocyte reaction” value [1] is reported as 0.078 µg/ml and 0.5 nM.

B2: BII61-62 anti-hPD-L1 scFv fused to IgG1-Fc (affinity matured) (Fc fusion)
scFv: QVQLQQSGPGLVKPSQTLSLTCAISGDSVSSNSASWNWIRQSPSRGLEWLGRTYYRSKWYDDYAVSVKGRISINPDTSKNQFSLQLNSVTPEDTAVYYCARSQGRYFVNYGMDVWGQGTTVTVSSGGGGSGGGGSGGGGSDIRLTQSPSSLSASVGDRITITCRASQSISSYLNWYQQKPGKAPKLLVYGASSLQSGVPSRFSGSGSGTDFTLTISSLQPEDVATYYCQQSYFTPRGITFGPGTKVDIK
notes: not shown: human immunoglobulin gamma1 (IgG1) constant region, UniProt P01857, residues 104-330 (IgG1-Fc)
Binder B2 has an IC50 [2] of 0.837 µg/mL.

B3: B60-55 anti-hPD-L1 scFv fused to IgG1-Fc (affinity matured) (Fc fusion)
scFv: QVQLVQSGAEVKKPASSVKVSCTASGGSFSTYAISWVRQAPGQGLEWMGGIIPIFGTTKYAQRFQGRVTITADESTTTAYMELSSLISDDTALYYCTTSRGFNYGWFDYWGQGTLVTVSSGGGGSGGGGSGGGGSEIVMTQSPATLSLSPGERATLSCRASQSVGIHLAWYQQKLGQAPRLLIYGASSRATGIPDRFSGSGSGTDFTLTISRLEPEDFAVYYCQQYGSLPRTFGQGTKVEIK
notes: as for B2
B3 was tested, and the IC50 [2] was 1.14 µg/mL.

B4: B60-55 mAb (anti-hPD-L1, human IgG1, kappa) (antibody, V domains shown)
VH: QVQLVQSGAEVKKPASSVKVSCTASGGSFSTYAISWVRQAPGQGLEWMGGIIPIFGTTKYAQRFQGRVTITADESTTTAYMELSSLISDDTALYYCTTSRGFNYGWFDYWGQGTLVTVSS
VL: EIVMTQSPATLSLSPGERATLSCRASQSVGIHLAWYQQKLGQAPRLLIYGASSRATGIPDRFSGSGSGTDFTLTISRLEPEDFAVYYCQQYGSLPRTFGQGTKVEIK
With B4 the “EC50 of IFN-γ secretion by CD4+ T cells in a dendritic cell-T cell mixed lymphocyte reaction” value [1] was 0.189 µg/ml and 1.2 nM.
